Values quoted from earlier work as cited in paper PMC4954776.

Molecular target: BRAF kinase domain 448-723 (Homo sapiens) (UniProt P15056)
Assay: sedimentation equilibrium

BRAF kinase domain 448-723, sequence (P15056 448-723): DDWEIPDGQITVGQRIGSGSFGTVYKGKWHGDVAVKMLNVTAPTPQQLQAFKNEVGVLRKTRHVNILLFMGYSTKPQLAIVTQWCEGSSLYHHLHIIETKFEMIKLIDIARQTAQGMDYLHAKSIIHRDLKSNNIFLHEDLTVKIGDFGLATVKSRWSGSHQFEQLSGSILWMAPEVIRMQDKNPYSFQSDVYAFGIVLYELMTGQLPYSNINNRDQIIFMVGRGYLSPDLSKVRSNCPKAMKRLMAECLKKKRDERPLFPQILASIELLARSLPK

BRAF kinase domain 448-723 (from UniProt P15056)
Kd: < 6.25 µM
